Laboratory results from US20220119529A1 (SUZHOU KANOVA BIOPHARMACEUTICAL, published 2022).
Substitutions are numbered along the chain they refer to. Values belong to the binder of their own block, whether it stands above or below them.

Assays:
[1] = molecular target: T1, human B7H3-4Ig on BaF3 cells (BaF3/B7H3-4Ig) (human, UniProt Q5ZPR3 29-534); assay: flow cytometry (MFI) on BaF3 cells stably expressing human B7H3-4Ig; panel 'BaF3/4Ig-B7H3'
T1 sequence: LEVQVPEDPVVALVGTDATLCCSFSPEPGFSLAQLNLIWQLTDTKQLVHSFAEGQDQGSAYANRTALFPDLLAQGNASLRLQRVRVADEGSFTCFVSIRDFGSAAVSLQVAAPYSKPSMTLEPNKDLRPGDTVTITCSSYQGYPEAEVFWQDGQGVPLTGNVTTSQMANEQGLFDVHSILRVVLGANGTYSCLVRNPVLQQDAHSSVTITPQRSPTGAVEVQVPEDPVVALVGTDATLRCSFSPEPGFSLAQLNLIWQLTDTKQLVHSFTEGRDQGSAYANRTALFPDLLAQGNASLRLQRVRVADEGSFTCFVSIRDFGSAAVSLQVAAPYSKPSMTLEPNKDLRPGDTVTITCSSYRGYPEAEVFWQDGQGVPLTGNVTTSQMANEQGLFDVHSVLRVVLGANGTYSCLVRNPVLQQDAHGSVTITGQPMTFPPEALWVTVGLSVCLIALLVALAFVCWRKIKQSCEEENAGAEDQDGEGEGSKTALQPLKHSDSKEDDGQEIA
Protocol: (§1) Cell surface binding affinity was tested with BaF3/B7H3-2Ig and BaF3/B7H3-4Ig the same method separately. Cells were washed with PBS and aliquot to 96-well U-bottom plate with a cell density of 5×10\hat{ }5 cells/well. For live/dead stain, LIVE/DEAD® Fixable Aqua Dead Cell Stain Kit (Life technologies, L34957) was applied (1:1000 in PBS, 100 ul/well) to cells, and incubated at 4° C. for 10 min FACS buffer (2% FBS in PBS, 100 ul/well) was added to each well to terminate staining. Centrifuge (1200 rpm, 5 min) to discard supernatant and wash with FACS buffer once. Humanized anti-B7H3 antibodies were diluted in FACS buffer to according concentrations and added to each well (100 ul/well). Cells were incubated at 4° C. for 30 min, and then, washed twice with FACS buffer. Alexa Fluor® 594 labeled goat anti-human IgG (Jackson Immuno Research, 109-585-088) was added (1:500 in FACS buffer) to label bounded antibodies. Cells were incubated at 4° C. for 30 min, and then, washed twice with FACS buffer.

[2] = molecular target: T2, human B7H3-2Ig on BaF3 cells (BaF3/B7H3-2Ig) (human, UniProt Q5ZPR3 29-534); assay: flow cytometry on BaF3/B7H3-2Ig cells
T2 chain: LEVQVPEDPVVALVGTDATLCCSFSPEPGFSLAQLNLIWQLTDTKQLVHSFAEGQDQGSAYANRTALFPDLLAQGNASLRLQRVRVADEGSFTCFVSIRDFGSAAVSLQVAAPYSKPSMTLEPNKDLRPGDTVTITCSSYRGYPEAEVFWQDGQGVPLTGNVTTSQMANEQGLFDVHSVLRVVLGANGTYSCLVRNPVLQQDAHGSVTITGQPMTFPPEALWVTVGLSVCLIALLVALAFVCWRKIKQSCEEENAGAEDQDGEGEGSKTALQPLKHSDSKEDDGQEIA

[3] = molecular target: B7H3 expressed on LPS-stimulated human PBMCs (monocytes) (human) (UniProt Q5ZPR3); assay: flow cytometry (MFI) on LPS-stimulated human PBMCs; panel 'XKH007-2721'
[4] = molecular target: Human B7H3 (plate-coated protein, ELISA) (human) (UniProt Q5ZPR3); assay: ELISA, antigen coated on plate, anti-human IgG-HRP
[5] = molecular target: T3, Human B7-H3 extracellular domain (NCBI Reference Sequence: NM_025240.2) (human, UniProt Q5ZPR3 29-466); assay: SPR, Biacore 8K, antibody captured through Fc, B7-H3 ECD as analyte
T3 chain: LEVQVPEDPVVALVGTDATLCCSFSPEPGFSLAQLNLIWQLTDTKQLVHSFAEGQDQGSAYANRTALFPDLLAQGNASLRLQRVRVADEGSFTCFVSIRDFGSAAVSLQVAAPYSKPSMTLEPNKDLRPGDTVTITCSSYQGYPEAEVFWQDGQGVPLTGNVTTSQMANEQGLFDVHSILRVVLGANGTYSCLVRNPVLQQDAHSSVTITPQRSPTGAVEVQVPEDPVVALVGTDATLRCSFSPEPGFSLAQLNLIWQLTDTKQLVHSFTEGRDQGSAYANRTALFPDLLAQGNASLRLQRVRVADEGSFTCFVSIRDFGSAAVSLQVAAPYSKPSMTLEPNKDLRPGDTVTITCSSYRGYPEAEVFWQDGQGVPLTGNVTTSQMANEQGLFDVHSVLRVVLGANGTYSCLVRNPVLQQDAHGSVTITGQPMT

[6] = molecular target: B7H3 expressed on LPS-stimulated human PBMCs (monocytes) (human) (UniProt Q5ZPR3); assay: flow cytometry on LPS-stimulated human PBMCs
[7] = molecular target: T4, Mouse B7H3 (plate-coated protein, ELISA) (mouse, UniProt Q8VE98 29-248, limits assumed); assay: ELISA, antigen coated on plate, anti-human IgG-HRP
T4 sequence (looked up): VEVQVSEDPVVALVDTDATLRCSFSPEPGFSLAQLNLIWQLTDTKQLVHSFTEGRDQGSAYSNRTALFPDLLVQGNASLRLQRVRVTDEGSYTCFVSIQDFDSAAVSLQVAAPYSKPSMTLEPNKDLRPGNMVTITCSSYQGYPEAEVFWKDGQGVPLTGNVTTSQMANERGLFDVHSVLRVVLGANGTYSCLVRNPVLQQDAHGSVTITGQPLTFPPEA
Protocol: (§2) In order to test humanized anti-B7H3 antibody binding affinity, an ELISA analysis was carried out. Human B7H3, mouse B7H3, and cynomolgus B7H3 (2 ug/ml, in PBS) were coated on MaxiSorp 96-well plates (NUNC, 449824) in 0.5M carbonate/bicarbonate buffer, pH9.6, incubated at 4° C. overnight. Coated plates were blocked with skimmed milk (5%, in PBST) for 1 h. Humanized anti-B7H3 antibodies were diluted and added to the plates, and incubated for 2 h at room temperature. Washed three times with PBST (1×PBS with 0.05% tween-20) to eliminate un-bounded antibodies. Goat anti-Human IgG-HRP (Easybio, BE0122, 1:5000 in PBS) was added and incubated for 1 h. Washed three times with PBST (lx PBS with 0.05% tween-20) to eliminate un-bounded antibodies. TMB (eBioscience, 00-4201-56) was added (50 ul/well) for color rendering and stopped by 2N H2SO4 (50 ul/well). Optical density was measured at 450 nm and […]. As shown in FIG. 1A and Table 1, the antibodies bind to human, mouse and cynomolgus monkey B7H3 protein with high affinity. The binding ability of the mAbs to cynomolgus B7H3 is similar to that for human B7-H3 protein.

[8] = molecular target: T5, Cynomolgus B7H3 (plate-coated protein, ELISA) (cynomolgus monkey); assay: ELISA, antigen coated on plate, anti-human IgG-HRP
T5 chain: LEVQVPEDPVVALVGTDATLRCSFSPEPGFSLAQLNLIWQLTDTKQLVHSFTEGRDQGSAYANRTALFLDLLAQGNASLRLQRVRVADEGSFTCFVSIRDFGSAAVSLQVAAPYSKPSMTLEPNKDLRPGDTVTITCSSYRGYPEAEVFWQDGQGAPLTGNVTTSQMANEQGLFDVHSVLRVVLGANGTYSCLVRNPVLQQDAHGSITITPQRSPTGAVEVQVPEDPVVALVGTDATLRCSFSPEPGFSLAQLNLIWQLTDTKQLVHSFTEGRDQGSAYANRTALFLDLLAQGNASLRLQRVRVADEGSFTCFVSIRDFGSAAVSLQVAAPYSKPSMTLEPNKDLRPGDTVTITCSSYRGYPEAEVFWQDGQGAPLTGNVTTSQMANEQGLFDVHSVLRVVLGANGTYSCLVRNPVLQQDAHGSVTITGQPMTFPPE
Protocol: as §2

[9] = molecular target: T2, human B7H3-2Ig on BaF3 cells …; assay: flow cytometry (MFI) on BaF3 cells stably expressing human B7H3-2Ig; panel 'BaF3/2Ig-B7H3'
[10] = molecular target: T1, human B7H3-4Ig on BaF3 cells …; assay: flow cytometry on BaF3/B7H3-4Ig cells
Protocol: as §1

[11] = molecular target: B7H3 expressed on LPS-stimulated human PBMCs (monocytes) (human) (UniProt Q5ZPR3); assay: flow cytometry (MFI) on LPS-stimulated human PBMCs; panel 'XKH007 23-5423'
[12] = molecular target: T1, human B7H3-4Ig on BaF3 cells …; assay: flow cytometry (MFI) on BaF3 cells stably expressing human B7H3-4Ig; panel 'BaF3-B7H3-4Ig'
Protocol: as §1

[13] = molecular target: B7H3 expressed on LPS-stimulated human PBMCs (monocytes) (human) (UniProt Q5ZPR3); assay: flow cytometry (MFI) on LPS-stimulated human PBMCs; panel 'XKH007-2722'
[14] = molecular target: B7H3 expressed on LPS-stimulated human PBMCs (monocytes) (human) (UniProt Q5ZPR3); assay: flow cytometry (MFI) on LPS-stimulated human PBMCs; panel 'XKH007 23-5424'
[15] = molecular target: B7H3 expressed on LPS-stimulated human PBMCs (monocytes) (human) (UniProt Q5ZPR3); assay: flow cytometry (MFI) on LPS-stimulated human PBMCs; panel 'XKH007-272121'

EC50 [1]: 0.896 nM
EC50 [2]: < 1 nM
EC50 (read off the curve) [3]: 0.06 nM
EC50 [4]: 0.618 nM
Kd [5]: 1.44 nM
koff [5]: 0.000431 s⁻¹
kon [5]: 299000 M⁻¹ s⁻¹
EC50 [6]: < 1 nM
EC50 [7]: 0.586 nM
EC50 [8]: 0.685 nM
EC50 [9]: 0.897 nM
EC50 [10]: < 1 nM
B1: #27-21 (VH2-2-VL2-1) (antibody, V domains shown)
VH: QVQLVQSGAEVVKPGASVKVSCKASGYTFTNYWMHWVKQAPGQGLEWIGMIHPNSGAFNYNERFKTRVTITVDKSTSTAYMELSSLRSEDTAVYYCARSTALATGYWGQGTLLTVSS
VL: DIQLTQSPSFLSASVGDRVTITCSASSSVSYMYWYQQKPGKSPKLLIYDTSNLASGVPSRFSGSGSGTEYTLTISSLQPEDFATYYCQQWSSYPLTFGQGTKLEIK
notes: Humanized antibody from murine #27; Detected with anti-human IgG and captured through Fc; also called #27-VH2-2/VL2-1

EC50 [11]: 1.54 nM
binding result [12]: binds
EC50 [4]: 0.0685 nM
Kd [5]: 1.05 nM
koff [5]: 0.000345 s⁻¹
kon [5]: 329000 M⁻¹ s⁻¹
EC50 [6]: < 3 nM
EC50 [7]: 1.44 nM
EC50 [8]: 0.042 nM
B2: #23-5423 (VH5-4-VL2-3) (antibody, IgG1, V domains shown)
VH: QVQLVQSGAEVKKPGESLKISCKASGYNFNNYWMHWVRQRPGKGLEWIGMIHPNSGTFNYNERFKRKATLTVDKSISTAYLQWSSLKAEDTAMYYCAKSTALATDYWGQGTLVTVSS
VL: B1 VL with D1Q, Q3V, F10T, S42A, S59I, E69S, E80D
notes: Humanized antibody from murine #23

EC50 [1]: 0.984 nM
EC50 [2]: < 1 nM
EC50 [13]: 0.131 nM
EC50 [4]: 0.333 nM
Kd [5]: 1.26 nM
koff [5]: 0.000365 s⁻¹
kon [5]: 288000 M⁻¹ s⁻¹
EC50 [6]: < 1 nM
EC50 [7]: 0.34 nM
EC50 [8]: 0.584 nM
EC50 [9]: 1.16 nM
EC50 [10]: < 1 nM
B3: #27-22 (VH2-2-VL2-2) (antibody, IgG1, V domains shown)
VH: B1 VH
VL: B1 VL with I21M, A83V
notes: Humanized antibody from murine #27; also called #27-VH2-2/VL2-2

binding result [12]: binds
EC50 [4]: 0.125 nM
EC50 [14]: 1.98 nM
Kd [5]: 1.36 nM
koff [5]: 0.000356 s⁻¹
kon [5]: 263000 M⁻¹ s⁻¹
EC50 [6]: < 3 nM
EC50 [7]: 4.9 nM
EC50 [8]: 0.0652 nM
B4: #23-5424 (VH5-4-VL2-4) (antibody, IgG1, V domains shown)
VH: B2 VH
VL: B1 VL with D1Q, Q3V, F10T, I21M, S42A, S59I, E69S, L77M, E80D, A83V
notes: Humanized antibody from murine #23; also called #23-VH5-4/VL2-4

EC50 [1]: 0.908 nM
EC50 [2]: < 1 nM
EC50 [15]: 0.117 nM
EC50 [4]: 0.583 nM
Kd [5]: 1.42 nM
koff [5]: 0.000433 s⁻¹
kon [5]: 306000 M⁻¹ s⁻¹
EC50 [6]: < 1 nM
EC50 [7]: 0.462 nM
EC50 [8]: 0.494 nM
EC50 [9]: 0.777 nM
EC50 [10]: < 1 nM
B5: #27-2121 (VH2-1-VL2-1) (antibody, IgG1, V domains shown)
VH: B1 VH with K38R, I48M, L113V
VL: B1 VL
notes: Humanized antibody from murine #27; also called #27-VH2-1/VL2-1
